Laboratory results published in PMC8896507.

Experiments:
[1] = biological target: DNA-PK assembly (KU-DNA-DNA-PKcs) (human (endogenous in HeLa)) (UniProt P78527); experiment: SEC-MALS + other: SAXS
[2] = biological target: KU (KU70/KU80 heterodimer) (human (endogenous in HeLa)) (UniProt P12956); experiment: SEC-MALS + other: SAXS

Substance | weight of the dimer in the two-state SAXS fit [1] [%] | stoichiometry N [2]
DNA-PK assembly (KU-DNA-DNA-PKcs) (from UniProt P78527 1-4128; P12956 1-609; P13010 1-732) (complex) | 24 | –
KU (KU70/KU80 heterodimer) (from UniProt P12956 1-609; P13010 1-732) (complex) | – | 2
